Results on 1 molecule are retold here after paper PMC3624071 (Biochemistry, 2013).

Assay [1] addresses T1, EutB subunit of ethanolamine ammonia-lyase (EAL) from the EALH6 construct (S. typhimurium, UniProt P19264 1-453).
T1 sequence: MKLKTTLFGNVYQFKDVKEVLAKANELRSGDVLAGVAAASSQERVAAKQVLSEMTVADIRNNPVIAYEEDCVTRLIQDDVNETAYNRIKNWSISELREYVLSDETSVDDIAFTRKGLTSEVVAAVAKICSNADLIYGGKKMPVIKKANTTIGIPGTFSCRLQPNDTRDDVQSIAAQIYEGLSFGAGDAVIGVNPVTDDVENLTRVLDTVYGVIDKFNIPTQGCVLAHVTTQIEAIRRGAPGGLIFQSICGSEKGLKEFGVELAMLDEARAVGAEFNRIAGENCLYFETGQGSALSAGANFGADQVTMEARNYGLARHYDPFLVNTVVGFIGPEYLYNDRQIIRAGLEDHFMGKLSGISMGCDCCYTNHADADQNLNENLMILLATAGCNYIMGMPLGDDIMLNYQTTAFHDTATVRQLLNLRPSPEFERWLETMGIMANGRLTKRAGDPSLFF
The assay is described as follows: pull-down.

Assay [2] deals with T1, EutB subunit of ethanolamine …. Description: pull-down. The source holds these as a separate data set.

B1: EutC subunit of ethanolamine ammonia-lyase (EAL) from the EALH6 construct (natural protein)
chain: MDQKQIEEIVRSVMASMGQDVPQPAAPSTQEGAKPQCAAPTVTESCALDLGSAEAKAWIGVENPHRADVLTELRRSTAARVCTGRAGPRPRTQALLRFLADHSRSKDTVLKEVPEEWVKAQGLLEVRSEISDKNLYLTRPDMGRRLSPEAIDALKSQCVMNPDVQVVVSDGLSTDAITANYEEILPPLLAGLKQAGLNVGTPFFVRYGRVKIEDQIGEILGAKVVILLVGERPGLGQSESLSCYAVYSPRVATTVEADRTCISNIHQGGTPPVEAAAVIVDLAKRMLEQKASGINMTR
By stoichiometry N is commonly meant the number of molecules, sites or subunits per partner or assembly. Regarding B1, in assay [1], the “subunit molar ratio after elution with 250 mM imidazole” value amounted to 0.32 mol EutC per mol EutB. Besides, the “stoichiometry N” value in assay [2] was 1.01 mol EutC per mol EutB.
